Reference: patent US20220387487A1, “COMPOSITIONS AND METHODS FOR TREATMENT OF CANCER” (Aleta Biotherapeutics Inc., priority 2019, published 2022)
Residue numbers refer to the chain shown, from its start. In names and notes the source's numbering stands.

B1: G226S: CD19 variant (protein)
chain: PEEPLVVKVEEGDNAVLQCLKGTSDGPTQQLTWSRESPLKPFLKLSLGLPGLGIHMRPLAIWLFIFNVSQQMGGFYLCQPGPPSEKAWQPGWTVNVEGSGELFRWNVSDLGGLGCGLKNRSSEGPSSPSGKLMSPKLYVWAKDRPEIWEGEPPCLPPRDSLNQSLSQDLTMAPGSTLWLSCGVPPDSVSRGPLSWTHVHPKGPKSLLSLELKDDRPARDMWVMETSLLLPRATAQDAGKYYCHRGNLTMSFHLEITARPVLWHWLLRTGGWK
B2: F66R: CD19 variant (protein)
chain: B1 chain with F66R, S226G
B3: A257R: CD19 variant (protein)
chain: B1 chain with S226G, A257R
B4: R57G: CD19 variant (protein)
chain: B1 chain with R57G, S226G
B5: W264N: CD19 variant (protein)
chain: B1 chain with S226G, W264N
B6: F64G: CD19 variant (protein)
chain: B1 chain with F64G, S226G
B7: F64V: CD19 variant (protein)
chain: B1 chain with F64V, S226G
B8: L261K: CD19 variant (protein)
chain: B1 chain with S226G, L261K
B9: W264D: CD19 variant (protein)
chain: B1 chain with S226G, W264D
B10: W62E: CD19 variant (protein)
chain: B1 chain with W62E, S226G
B11: V16W: CD19 variant (protein)
chain: B1 chain with V16W, S226G
B12: V260S: CD19 variant (protein)
chain: B1 chain with S226G, V260S
B13: W264A: CD19 variant (protein)
chain: B1 chain with S226G, W264A
B14: W262K: CD19 variant (protein)
chain: B1 chain with S226G, W262K
B15: W262D: CD19 variant (protein)
chain: B1 chain with S226G, W262D
B16: A257K: CD19 variant (protein)
chain: B1 chain with S226G, A257K
B17: G269L: CD19 variant (protein)
chain: B1 chain with S226G, G269L
B18: K212A: CD19 variant (protein)
chain: B1 chain with K212A, S226G
B19: L20G: CD19 variant (protein)
chain: B1 chain with L20G, S226G
B20: W62D/F64L/F66P: CD19 variant (protein)
chain: B1 chain with W62D, F64L, F66P, S226G
B21: W62D/F64V/F66R: CD19 variant (protein)
chain: B1 chain with W62D, F64V, F66R, S226G
B22: W62E/F64R/F66R: CD19 variant (protein)
chain: B1 chain with W62E, F64R, F66R, S226G
B23: L59N/I61V/L63L: CD19 variant (protein)
chain: B1 chain with L59N, I61V, S226G
B24: W62R/F64V/F66R: CD19 variant (protein)
chain: B1 chain with W62R, F64V, F66R, S226G
B25: W62W/F64V/F66A: CD19 variant (protein)
chain: B1 chain with F64V, F66A, S226G
B26: W62E/F64V/F66V: CD19 variant (protein)
chain: B1 chain with W62E, F64V, F66V, S226G
B27: E224G/G226R/L228F: CD19 variant (protein)
chain: B1 chain with E224G, S226R, L228F
B28: W62T/F64V/F66F: CD19 variant (protein)
chain: B1 chain with W62T, F64V, S226G
B29: E224G/G226S/L228M: CD19 variant (protein)
chain: B1 chain with E224G, L228M
B30: W62Y/F64S/F66R: CD19 variant (protein)
chain: B1 chain with W62Y, F64S, F66R, S226G
B31: W62T/F64R/F66Q: CD19 variant (protein)
chain: B1 chain with W62T, F64R, F66Q, S226G
B32: E224G/G226D/L228V: CD19 variant (protein)
chain: B1 chain with E224G, S226D, L228V
B33: W62R/F64A/F66F: CD19 variant (protein)
chain: B1 chain with W62R, F64A, S226G
B34: E224G/G226A/L228T: CD19 variant (protein)
chain: B1 chain with E224G, S226A, L228T
B35: W62S/F64R/F66S: CD19 variant (protein)
chain: B1 chain with W62S, F64R, F66S, S226G
B36: W62E/F64W/F66R: CD19 variant (protein)
chain: B1 chain with W62E, F64W, F66R, S226G
B37: E224G/G226E/L228I: CD19 variant (protein)
chain: B1 chain with E224G, S226E, L228I
B38: E224E/G226E/L228V: CD19 variant (protein)
chain: B1 chain with S226E, L228V
B39: W62S/F64V/F66A: CD19 variant (protein)
chain: B1 chain with W62S, F64V, F66A, S226G
B40: W62E/F64C/F66S: CD19 variant (protein)
chain: B1 chain with W62E, F64C, F66S, S226G
B41: W62A/F64R/F66L: CD19 variant (protein)
chain: B1 chain with W62A, F64R, F66L, S226G
B42: W62D/F64V/F66M: CD19 variant (protein)
chain: B1 chain with W62D, F64V, F66M, S226G
B43: W62W/F64S/F66S: CD19 variant (protein)
chain: B1 chain with F64S, F66S, S226G
B44: W62E/F64E/F66V: CD19 variant (protein)
chain: B1 chain with W62E, F64E, F66V, S226G
B45: W62T/F64V/F66P: CD19 variant (protein)
chain: B1 chain with W62T, F64V, F66P, S226G
B46: W62E/F64R/F66P: CD19 variant (protein)
chain: B1 chain with W62E, F64R, F66P, S226G
B47: E224D/G226V/L228V: CD19 variant (protein)
chain: B1 chain with E224D, S226V, L228V

test system: FMC63; experiment: CD19 variant binding to anti-CD19 antibody FMC63 (score); conditions: Table 1A, CD19 single mutants (positions of SEQ ID NO:2)
Sequence (as listed by the source): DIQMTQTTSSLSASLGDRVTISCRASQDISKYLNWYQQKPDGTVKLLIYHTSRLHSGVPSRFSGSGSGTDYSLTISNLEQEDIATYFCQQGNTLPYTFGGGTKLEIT
Sequence (as listed by the source): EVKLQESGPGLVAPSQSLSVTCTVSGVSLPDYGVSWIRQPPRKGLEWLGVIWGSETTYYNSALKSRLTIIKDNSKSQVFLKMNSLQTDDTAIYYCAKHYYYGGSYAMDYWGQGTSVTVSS

| Molecule | FMC63 Binding Score |
| --- | --- |
| B1 | 6.1 ± .4 |
| B2 | 6. ± .3 |
| B3 | 6.1 ± .5 |
| B4 | 5.7 ± .2 |
| B5 | 9. ± 1.3 |
| B6 | 6. ± .2 |
| B7 | 6. ± .4 |
| B8 | 6.2 ± .6 |
| B9 | 6.2 ± .6 |
| B10 | 6.4 ± .7 |
| B11 | 6.7 ± 1. |
| B12 | 5.8 ± .3 |
| B13 | 6.3 ± .5 |
| B14 | 8.2 ± .7 |
| B15 | 8.3 ± .8 |
| B16 | 6.1 ± .5 |
| B17 | 6.1 ± .4 |
| B18 | 6.1 ± .6 |
| B19 | 5.7 ± .2 |

same assay, conditions: Table 1B, CD19 triple mutants

| Molecule | FMC63 Binding Score |
| --- | --- |
| B20 | 16.3 ± 5.5 |
| B21 | 12.6 ± 2.3 |
| B22 | 12.4 ± 2.1 |
| B23 | 13.9 ± 3.2 |
| B24 | 12.3 ± 1.6 |
| B25 | 13.7 ± 3.2 |
| B26 | 13.4 ± 2.5 |
| B27 | 12.8 ± 1.7 |
| B28 | 13.6 ± 3.2 |
| B29 | 13.8 ± 3.4 |
| B30 | 13.7 ± 3.2 |
| B31 | 16.3 ± 5.5 |
| B32 | 12. ± 1.2 |
| B33 | 15.9 ± 5.6 |
| B34 | 12.7 ± 2.4 |
| B35 | 13.2 ± 2.1 |
| B36 | 14.2 ± 3.2 |
| B37 | 14.3 ± 3.4 |
| B38 | 11.6 ± 1.2 |
| B39 | 13.5 ± 3.2 |
| B40 | 12.6 ± 2.3 |
| B41 | 13.1 ± 2.3 |
| B42 | 16. ± 5.6 |
| B43 | 14. ± 3.2 |
| B44 | 16.2 ± 5.5 |
| B45 | 16.6 ± 5.5 |
| B46 | 16.5 ± 5.5 |
| B47 | 13.8 ± 3.4 |
